# Assays:
# [1] = target: T1, rHis-BoTNF-α (pET-30a(+)-BoTNF-α, E. coli BL21(DE3)) (牛 (bovine), UniProt Q06599 78-234); experiment: Western blot with HRP-3C1 1:1000
# T1 construct: Own construct; also called rHis-BoTNF-α纯化蛋白; not shown: N-terminal His tag and vector residues of pET-30a(+) up to the BamHI site
# T1 sequence (looked up): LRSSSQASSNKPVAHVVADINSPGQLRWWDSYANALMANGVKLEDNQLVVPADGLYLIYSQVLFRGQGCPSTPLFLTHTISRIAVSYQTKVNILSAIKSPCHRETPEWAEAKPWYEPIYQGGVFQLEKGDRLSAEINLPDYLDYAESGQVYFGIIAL
# [2] = target: T2, rGST-BoTNF-α (pGEX-6p-1-BoTNF-α, E. coli BL21) (牛 (bovine)) (UniProt Q06599); experiment: indirect ELISA, rGST-BoTNF-α coated at 0.5μg/mL, serially diluted 3C1 ascites, cut-off P/N≥2.1
# T2 sequence (looked up): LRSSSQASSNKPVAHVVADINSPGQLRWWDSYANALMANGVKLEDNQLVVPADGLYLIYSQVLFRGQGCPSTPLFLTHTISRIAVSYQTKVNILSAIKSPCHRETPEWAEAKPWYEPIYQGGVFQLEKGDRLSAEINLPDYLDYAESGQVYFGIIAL
# [3] = target: T3, 商品化rBoTNF-α (美国R&D公司, 2279-BT-025) (牛 (bovine), UniProt Q06599 78-234); experiment: indirect ELISA, protein coated at 0.5μg/mL, 3C1 hybridoma supernatant
# T3 construct: Commercial protein
# T3 sequence (looked up): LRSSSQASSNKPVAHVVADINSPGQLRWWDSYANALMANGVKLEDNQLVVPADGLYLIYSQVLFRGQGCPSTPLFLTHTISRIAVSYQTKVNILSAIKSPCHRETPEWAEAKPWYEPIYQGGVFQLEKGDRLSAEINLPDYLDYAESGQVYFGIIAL
# [4] = target: T4, 天然羊TNF-α (羊外周血单核细胞) (羊 (sheep)) (UniProt P23383); experiment: intracellular flow cytometry, PMA/ionomycin-stimulated sheep PBMC, FITC-3C1 0.5μg/mL
# T4 sequence (looked up): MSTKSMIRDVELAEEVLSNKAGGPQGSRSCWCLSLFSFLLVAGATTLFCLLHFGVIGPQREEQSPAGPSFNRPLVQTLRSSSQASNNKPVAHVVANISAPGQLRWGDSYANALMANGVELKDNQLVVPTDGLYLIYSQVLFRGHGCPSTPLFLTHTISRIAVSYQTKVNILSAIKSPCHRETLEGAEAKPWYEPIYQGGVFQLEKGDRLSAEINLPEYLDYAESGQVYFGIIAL
# [5] = target: T4, 天然羊TNF-α (羊外周血单核细胞) (羊 (sheep)); experiment: intracellular flow cytometry, unstimulated sheep PBMC (control well), FITC-3C1 0.5μg/mL
# [6] = target: T5, 天然牛TNF-α (牛外周血单核细胞) (牛 (bovine)) (UniProt Q06599); experiment: intracellular flow cytometry, unstimulated bovine PBMC (control well), FITC-3C1 0.5μg/mL
# T5 sequence (looked up): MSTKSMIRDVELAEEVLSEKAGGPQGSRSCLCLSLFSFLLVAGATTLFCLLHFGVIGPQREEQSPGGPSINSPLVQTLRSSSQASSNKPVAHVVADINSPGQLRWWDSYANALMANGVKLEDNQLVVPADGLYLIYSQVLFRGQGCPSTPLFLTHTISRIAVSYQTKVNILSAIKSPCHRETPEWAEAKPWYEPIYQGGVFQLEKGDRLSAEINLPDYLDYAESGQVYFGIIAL
# [7] = target: T6, rhuTNF-α (PeproTech, 300-01A-50) (UniProt P01375 77-233); experiment: indirect ELISA, coated protein, 3C1 hybridoma supernatant
# T6 construct: Commercial protein
# T6 sequence (P01375 77-233 limits assumed): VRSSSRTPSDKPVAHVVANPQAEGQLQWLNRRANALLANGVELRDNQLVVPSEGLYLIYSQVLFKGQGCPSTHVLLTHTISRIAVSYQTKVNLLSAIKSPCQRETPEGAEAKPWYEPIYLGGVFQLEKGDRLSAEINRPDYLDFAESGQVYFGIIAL
# [8] = target: T7, rBoIFN-γ (美国R&D公司, 2300-BG-02) (UniProt P07353 24-166); experiment: as above
# T7 construct: Commercial protein; species read from the label Bo
# T7 sequence (looked up): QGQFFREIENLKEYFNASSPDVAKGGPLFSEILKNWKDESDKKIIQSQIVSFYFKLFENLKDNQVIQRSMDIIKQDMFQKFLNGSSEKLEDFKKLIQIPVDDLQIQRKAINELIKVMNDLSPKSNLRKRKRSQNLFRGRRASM
# [9] = target: T8, rBoIL-2 (Kingfisher-Biotech公司, rp0026B-005) (UniProt P05016 21-155); experiment: as above
# T8 construct: Commercial protein
# T8 sequence (looked up): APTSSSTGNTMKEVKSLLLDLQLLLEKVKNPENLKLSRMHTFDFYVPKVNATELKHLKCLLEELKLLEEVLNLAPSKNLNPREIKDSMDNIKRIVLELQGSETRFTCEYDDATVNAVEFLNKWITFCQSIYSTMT
# [10] = target: T9, rPoTNF-α (美国R&D公司, 690-PT-025) (UniProt P23563 77-232); experiment: as above
# T9 construct: Commercial protein
# T9 sequence (P23563 77-232 limits assumed): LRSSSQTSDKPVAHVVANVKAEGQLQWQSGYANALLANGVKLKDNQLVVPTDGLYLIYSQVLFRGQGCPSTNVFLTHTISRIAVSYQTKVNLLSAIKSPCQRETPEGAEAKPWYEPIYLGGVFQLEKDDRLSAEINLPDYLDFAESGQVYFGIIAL
# [11] = target: T5, 天然牛TNF-α (牛外周血单核细胞) (牛 (bovine)); experiment: intracellular flow cytometry, PMA/ionomycin-stimulated bovine PBMC, FITC-3C1 0.5μg/mL
binder,measurement,setting,value
"单克隆抗体3C1 (具牛、羊交叉反应的抗TNF-α单克隆抗体, 杂交瘤 CCTCC NO:C2019129) (antibody, V domains shown, Used as ascites, hybridoma supernatant, HRP-labelled (HRP-3C1) or FITC-labelled (FITC-3C1) antibody, depending on the assay; also called mAb 3C1; MAb 3C1) VH: QVQLKQSGPGLVQPSQSLSITCTVSGFSLTNFSVHWVRQPPGKGLEWLGVMWSGGSTDYNAAFISRLSIIKDNSKSQVFFKMNGLQADDTAIYYCARSGPYYYSLDYWGQGTSVTVSS VL: DIQMTQSPASLSASVGETVTITCRASENIYIYLAWYQQKQGKSPQLLVYNAKTLAEGVPSRFSGSGSGTQFSLNINSLQPEDFGSYYCQHHYGTPWTFGGGTKLEIK",binding result,[1],binds
same,效价 (ascites titre) (dilution (1:x)),[2],1.31e+07
same,binding result,[3],binds
same,分泌羊TNF-α细胞比例 (percent stained cells),[4],13.4%
same,分泌羊TNF-α细胞比例 (percent stained cells),[5],0.027%
same,分泌牛TNF-α细胞比例 (percent stained cells),[6],0.051%
same,binding result,[7],no binding (tested: 0.5μg/mL (coating))
same,binding result,[8],no binding (tested: 0.5μg/mL (coating))
same,binding result,[9],no binding (tested: 0.5μg/mL (coating))
same,binding result,[10],no binding (tested: 0.5μg/mL (coating))
same,分泌牛TNF-α细胞比例 (percent stained cells),[11],18.4%

# Reference: patent CN110760483A (UNIV YANGZHOU, dated 2020)
